# From US20080274950A1 (BABRAHAM INSTITUTE, published 2008)
# Where a chain is given by its changes, count along the chain named. In names and notes the source's numbering stands.
# T1: human N-cadherin naturally expressed on DX3 melanoma cells (human, UniProt P19022 160-906)
# T1 construct: also called DX3 Cells; N-cadherin+ve DX3 melanoma cells
# T1 sequence: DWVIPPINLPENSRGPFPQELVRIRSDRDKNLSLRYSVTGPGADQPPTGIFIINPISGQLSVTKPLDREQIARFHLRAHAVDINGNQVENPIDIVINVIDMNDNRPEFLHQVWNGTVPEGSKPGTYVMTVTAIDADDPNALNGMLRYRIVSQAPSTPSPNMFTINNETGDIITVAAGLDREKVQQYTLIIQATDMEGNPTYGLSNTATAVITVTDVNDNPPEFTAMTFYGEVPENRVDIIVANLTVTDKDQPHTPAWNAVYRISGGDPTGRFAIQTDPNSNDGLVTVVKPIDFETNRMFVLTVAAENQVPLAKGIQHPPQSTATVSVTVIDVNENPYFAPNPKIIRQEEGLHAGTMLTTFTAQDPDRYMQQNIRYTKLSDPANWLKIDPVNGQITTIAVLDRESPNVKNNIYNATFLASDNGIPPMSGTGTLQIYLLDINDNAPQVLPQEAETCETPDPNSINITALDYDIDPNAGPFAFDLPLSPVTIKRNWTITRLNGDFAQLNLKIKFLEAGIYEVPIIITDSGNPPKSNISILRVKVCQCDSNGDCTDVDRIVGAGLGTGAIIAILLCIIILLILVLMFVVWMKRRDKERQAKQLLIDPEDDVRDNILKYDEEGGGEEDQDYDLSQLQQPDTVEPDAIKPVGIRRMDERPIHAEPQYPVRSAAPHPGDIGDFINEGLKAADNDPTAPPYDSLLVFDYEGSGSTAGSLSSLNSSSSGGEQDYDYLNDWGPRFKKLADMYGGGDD
# T2: full length chicken N-cadherin with the N-terminus extended by two glycine residues (GG) expressed on K562 … (chicken, UniProt P10288 165-912)
# T2 construct: whole, on cells; also called cells expressing the GG N-terminal extension mutant; K562 GG
# T2 sequence: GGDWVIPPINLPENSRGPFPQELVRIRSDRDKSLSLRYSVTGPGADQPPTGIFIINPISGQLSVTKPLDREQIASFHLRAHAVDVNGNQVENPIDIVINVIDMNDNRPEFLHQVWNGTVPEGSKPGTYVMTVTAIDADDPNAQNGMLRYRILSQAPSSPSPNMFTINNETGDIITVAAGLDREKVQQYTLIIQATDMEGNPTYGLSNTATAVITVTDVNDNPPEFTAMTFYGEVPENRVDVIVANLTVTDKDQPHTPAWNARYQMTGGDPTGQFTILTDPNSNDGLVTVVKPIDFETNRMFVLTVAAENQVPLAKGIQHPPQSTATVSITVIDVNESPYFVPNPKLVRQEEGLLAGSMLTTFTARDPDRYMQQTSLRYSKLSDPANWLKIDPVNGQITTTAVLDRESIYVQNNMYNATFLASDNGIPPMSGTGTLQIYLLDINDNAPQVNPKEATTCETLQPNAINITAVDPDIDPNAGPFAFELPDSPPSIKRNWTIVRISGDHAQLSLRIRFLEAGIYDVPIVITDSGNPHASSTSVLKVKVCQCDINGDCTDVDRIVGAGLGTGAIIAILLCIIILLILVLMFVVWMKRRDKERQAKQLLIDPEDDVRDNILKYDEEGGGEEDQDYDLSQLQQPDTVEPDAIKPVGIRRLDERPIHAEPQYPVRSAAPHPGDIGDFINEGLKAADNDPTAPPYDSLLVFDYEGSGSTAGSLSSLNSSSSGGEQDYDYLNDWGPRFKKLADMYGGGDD
# T3: full length chicken N-cadherin with the mutation E89A expressed on K562 cells (chicken, UniProt P10288 165-912, E89A)
# T3 construct: whole, on cells; also called cells expressing the E89A mutation; K562 E89A
# T3 sequence (looked up): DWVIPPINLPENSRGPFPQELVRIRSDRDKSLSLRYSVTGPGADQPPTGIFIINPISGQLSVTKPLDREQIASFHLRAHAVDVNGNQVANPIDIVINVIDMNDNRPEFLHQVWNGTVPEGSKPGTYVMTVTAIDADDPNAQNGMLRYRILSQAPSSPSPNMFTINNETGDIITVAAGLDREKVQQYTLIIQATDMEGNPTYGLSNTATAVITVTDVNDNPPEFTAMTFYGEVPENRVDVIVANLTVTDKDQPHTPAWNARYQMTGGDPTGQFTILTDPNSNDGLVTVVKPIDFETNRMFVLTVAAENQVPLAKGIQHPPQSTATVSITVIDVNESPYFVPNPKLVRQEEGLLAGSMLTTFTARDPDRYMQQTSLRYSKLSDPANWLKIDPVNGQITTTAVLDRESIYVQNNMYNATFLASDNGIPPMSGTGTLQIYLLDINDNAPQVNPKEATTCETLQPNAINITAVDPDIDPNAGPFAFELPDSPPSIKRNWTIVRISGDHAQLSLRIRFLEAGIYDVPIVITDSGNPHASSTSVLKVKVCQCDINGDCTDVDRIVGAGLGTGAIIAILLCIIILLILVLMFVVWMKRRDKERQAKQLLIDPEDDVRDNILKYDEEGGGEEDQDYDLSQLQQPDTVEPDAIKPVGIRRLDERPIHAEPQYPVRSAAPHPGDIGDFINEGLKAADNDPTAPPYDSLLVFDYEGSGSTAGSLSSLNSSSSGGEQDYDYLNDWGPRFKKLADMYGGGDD
# B1: monomeric chicken N-cadherin-Fc with the mutation D1C (Fc fusion, UniProt P10288 165-728, looked up)
# chain: CWVIPPINLPENSRGPFPQELVRIRSDRDKSLSLRYSVTGPGADQPPTGIFIINPISGQLSVTKPLDREQIASFHLRAHAVDVNGNQVENPIDIVINVIDMNDNRPEFLHQVWNGTVPEGSKPGTYVMTVTAIDADDPNAQNGMLRYRILSQAPSSPSPNMFTINNETGDIITVAAGLDREKVQQYTLIIQATDMEGNPTYGLSNTATAVITVTDVNDNPPEFTAMTFYGEVPENRVDVIVANLTVTDKDQPHTPAWNARYQMTGGDPTGQFTILTDPNSNDGLVTVVKPIDFETNRMFVLTVAAENQVPLAKGIQHPPQSTATVSITVIDVNESPYFVPNPKLVRQEEGLLAGSMLTTFTARDPDRYMQQTSLRYSKLSDPANWLKIDPVNGQITTTAVLDRESIYVQNNMYNATFLASDNGIPPMSGTGTLQIYLLDINDNAPQVNPKEATTCETLQPNAINITAVDPDIDPNAGPFAFELPDSPPSIKRNWTIVRISGDHAQLSLRIRFLEAGIYDVPIVITDSGNPHASSTSVLKVKVCQCDINGDCTDVDRIVGAGLGT
# notes: extracellular domain; not shown: hinge region, CH2 and CH3 domains of human IgG1 heavy chain (vector pIgSig)
# B2: chicken N-cadherin Fc fusion protein with the mutation E89A (Fc fusion, UniProt P10288 165-728, looked up)
# chain: B1 chain with C1D, E89A
# notes: extracellular domain; also called E89A mutant; E89A Fc fusion protein; not shown: hinge region, CH2 and CH3 domains of human IgG1 heavy chain (vector pIgSig)
# B3: chicken N-cadherin Fc fusion protein with the N-terminus extended by two glycine residues (GG) (Fc fusion)
# chain: GGDWVIPPINLPENSRGPFPQELVRIRSDRDKSLSLRYSVTGPGADQPPTGIFIINPISGQLSVTKPLDREQIASFHLRAHAVDVNGNQVENPIDIVINVIDMNDNRPEFLHQVWNGTVPEGSKPGTYVMTVTAIDADDPNAQNGMLRYRILSQAPSSPSPNMFTINNETGDIITVAAGLDREKVQQYTLIIQATDMEGNPTYGLSNTATAVITVTDVNDNPPEFTAMTFYGEVPENRVDVIVANLTVTDKDQPHTPAWNARYQMTGGDPTGQFTILTDPNSNDGLVTVVKPIDFETNRMFVLTVAAENQVPLAKGIQHPPQSTATVSITVIDVNESPYFVPNPKLVRQEEGLLAGSMLTTFTARDPDRYMQQTSLRYSKLSDPANWLKIDPVNGQITTTAVLDRESIYVQNNMYNATFLASDNGIPPMSGTGTLQIYLLDINDNAPQVNPKEATTCETLQPNAINITAVDPDIDPNAGPFAFELPDSPPSIKRNWTIVRISGDHAQLSLRIRFLEAGIYDVPIVITDSGNPHASSTSVLKVKVCQCDINGDCTDVDRIVGAGLGTG
# notes: extracellular domain; also called GG extension mutant; GG mutant; not shown: hinge region, CH2 and CH3 domains of human IgG1 heavy chain (vector pIgSig)
# How the values were obtained:
# [1] = biological target: the molecule itself; assay: disulphide-bonded cis-dimers in the coating layer; non-reducing SDS-PAGE and immunoblot
# Protocol: Monomeric N-cadherin-Fc (1 μg/ml) bearing the three alternative cysteine point mutations, D1C, R25C or D27C, was immobilised on 96-well plates with goat antihuman IgG Fe as previously described for E-cadherin-Fc (Corps et al., 2001). Unbound cadherin was removed by washing with HBSS, 0.1% BSA, followed by HBSS alone. The plates were not blocked with additional protein. K562 transfectants expressing N-cadherin bearing complementary or non-complementary point mutations (6×10^4 Cells in 100 μl HBSS containing 10 mM DTT), in single cell suspension, were added to the coated wells which contained 100 μl HBSS. The final concentration of DTT was therefore 5 mM DTT during the adhesion stage. The cells were allowed to settle for 10 min at room temperature before incubation at 37° C. for 30 minutes to complete adhesion. […] Adherent cells from a pool of 4 wells for each experimental condition were then solubilised in sample buffer for SDS-PAGE and analysed on NuPAGE Novex gradient gels, 3-8% or 4-12%, (Invitrogen), under nonreducing or reducing conditions. Cellular cadherin was detected by immunoblotting using rabbit pan anti-cadherin antiserum specific for the cytoplasmic domain. Alternatively, N-cadherin-Fc fusion protein was detected with rabbit anti-human IgG, Fc-specific (Pierce, code 31142). […]
# [2] = biological target: T1, human N-cadherin naturally expressed on …; assay: adhesion of DX3 cells to coated monomeric N-cadherin-Fc, oxidising buffer
# Protocol: Monomeric or dimeric N-cadherin-Fc fusion protein in Cos cell supernatants was added as described for the ELISA assay. DX3 Cells, a human melanoma cell line which expresses N-cadherin, were dissociated with Cell Dissociation Solution (Sigma, code C5789), resuspended in HBSS with 2% FCS and assessed for adhesion to wild type or mutant N-cadherin-Fc as previously described (Corps et al., 2001). Microscopic examination established that the cells were present as a single cell suspension as they settled onto the plate. For assays conducted in reducing conditions, 10 mM DTT was present during the adhesion and washing steps. Determinations were conducted in triplicate and results are presented as mean +/−sem.
# [3] = biological target: T2, full length chicken N-cadherin with the …; assay: adhesion of K562 transfectants to N-cadherin Fc coated at 1 µg/ml
# Protocol: (§1) Adhesion tests were conducted substantially as described in Example 1. Briefly, K562 Cells or L cells transfected with wild type or mutant N-cadherin were allowed to settle for 45 minutes at 37° C. onto N-cadherin Fc fusion proteins coated at 1 μg/ml to a 96 well plate. Non-adherent cells were then washed off and residual adherent cells were quantitated by measuring acid phosphatase activity. Assays were conducted in quadruplicate and results are expressed as % cells adhering +/−SEM.
# [4] = biological target: T3, full length chicken N-cadherin with the …; assay: adhesion of K562 transfectants to coated N-cadherin Fc
# Protocol: as §1
# [5] = biological target: T3, full length chicken N-cadherin with the …; assay: adhesion of K562 transfectants to N-cadherin Fc coated at 1 µg/ml; reversed by chelation of calcium
# Protocol: as §1
# [6] = biological target: T2, full length chicken N-cadherin with the …; assay: adhesion of K562 transfectants to coated N-cadherin Fc
# Protocol: as §1
binder,measurement,setting,value
B1,binding result,[1],binds
same,binding result,[2],binds
B2,binding result,[3],binds
same,binding result,[4],no binding (tested: Fc fusion protein coated at 1 µg/ml)
B3,binding result,[5],binds
same,binding result,[6],no binding (tested: Fc fusion protein coated at 1 µg/ml)
